The values that follow come from patent US20210340524A1 (MIT, published 2021).

Usually Kd stands for a measure of binding affinity in units of concentration. What is called EC50 (read off the curve) is the concentration at which the effect is half-maximal. A lower EC50 (read off the curve) goes with higher potency in that assay.

The target of assay [1] is T1, FMC63 IgG.
T1 construct: biotinylated in the flow cytometry assays; also called FMC63 IgG antibody; biotinylated FMC63 IgG
The experiment in a line: flow cytometry (MFI), yeast clone titrated with 0.01-1000 nM biotinylated FMC63 IgG; yeast-displayed clone, FACS titration 0.01-1000 nM biotinylated FMC63 IgG. An excerpt:
(§1) In order to validate specific sequences, clones were isolated and measured for their affinity to FMC63. Specifically, a subset of mimotope clones were selected from the fixed library sequence described in Example 5.

Assay [2] addresses T2, anti-mCD19 IgG (clone 1D3).
T2 construct: Anti-mouse CD19 IgG; also called 1D3 IgG; biotinylated 1D3 antibody
The experiment in a line: ELISA, titration with anti-mCD19 (1D3) IgG, OD(450nm); value printed beside the circle curve. For orientation: An ELISA detects its analyte on a solid surface through an enzyme-linked reagent.

The target of assay [3] is T2, anti-mCD19 IgG (clone 1D3). The assay is described as follows: ELISA, titration with anti-mCD19 (1D3) IgG, OD(450nm); value printed beside the triangle curve.
T2 sequence (VH, as listed by the source, chain 1 of 2): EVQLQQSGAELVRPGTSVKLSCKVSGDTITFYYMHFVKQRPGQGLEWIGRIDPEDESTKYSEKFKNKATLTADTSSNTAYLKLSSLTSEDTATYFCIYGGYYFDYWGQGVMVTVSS
T2 sequence (VL, as listed by the source, chain 2 of 2): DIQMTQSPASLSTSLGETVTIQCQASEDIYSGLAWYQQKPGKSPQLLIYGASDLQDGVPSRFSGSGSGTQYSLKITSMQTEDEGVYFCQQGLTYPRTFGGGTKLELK
Assay [4] has as its target T2, anti-mCD19 IgG (clone 1D3). The experiment in a line: ELISA, titration with anti-mCD19 (1D3) IgG, OD(450nm); value printed beside the square curve.
In assay [5] the target is T1, FMC63 IgG. The assay is described as follows: flow cytometry of yeast clones stained with 5 µM FMC63 IgG, alanine scan. The method, then:
(§2) To determine the effect of amino acid position on binding to FMC63, an alanine mutagenesis experiment was performed were each amino acid was mutated to alanine and binding to FMC63 was assessed. Specifically, a representative mimotope, […] To assess the tolerance of additional alanine residues, one alanine or two alanine residues were inserted between the two cysteine residues (SEQ ID NOs: 52 and 53) to determine the impact the loop structure had on mimotope binding to FMC63. To generate mutations, two complementary oligos with the codon replaced at the desired site were denatured at 95° C. and annealed by slow cooling to 25° C. (decreasing by 0.5° C./second). The annealed oligos were treated with T4 PNK (T4 Polynucleotide Kinase) to add a terminal phosphate, and then ligated into digested pCT-CON2 vector. Positive clones having the correct oligo inserted were tested and transformed into competent EBY100 yeast cells. Following generation of mutated clones, flow cytometry was performed by staining the yeast with 5 μM FMC63 IgG antibody to measure binding of the mimotope (FIG. 11).
(In flow cytometry, cells or beads pass a laser one at a time.)

For assay [6], the target named is T1, FMC63 IgG. The experiment in a line: flow cytometry of yeast clones, titration with 0.01-1000 nM biotinylated FMC63 IgG, MFI (geometric mean).
Text: as §1

The target of assay [7] is T1, FMC63 IgG. The experiment in a line: flow cytometry of yeast clones stained with 5 µM FMC63 IgG, tolerance of extra alanine residues. How it is done:
as §2

Assay [8] concerns the target T1, FMC63 IgG. The experiment in a line: flow cytometry (MFI), yeast clone titrated with 0.01-1000 nM biotinylated FMC63 IgG.
Text: as §1

The target in a further assay is T3, FMC63 scFv (biotinylated).
T3 construct: also called biotinylated FMC63 scFv; FMC63-scFv monomer
T3 sequence (scFv, as listed by the source): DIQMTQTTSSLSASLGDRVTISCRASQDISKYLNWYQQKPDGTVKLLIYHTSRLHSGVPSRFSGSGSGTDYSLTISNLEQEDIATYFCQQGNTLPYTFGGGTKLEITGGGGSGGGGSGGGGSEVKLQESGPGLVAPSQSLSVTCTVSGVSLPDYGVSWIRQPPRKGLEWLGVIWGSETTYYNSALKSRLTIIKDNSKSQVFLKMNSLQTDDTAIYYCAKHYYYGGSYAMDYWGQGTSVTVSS
The experiment in a line: flow cytometry of yeast clones, titration with biotinylated FMC63 scFv and streptavidin-PE, MFI (geometric mean). The method, then: The binding affinity of the isolated yeast clones to FMC63 was determined.

Assay [9] has as its target T1, FMC63 IgG. The assay is described as follows: ELISA with FMC63 IgG; ELISA, not FACS titration. The method, then: Next, the affinity of the […] (SEQ ID NO: 5) mimotope to FMC63 was determined.

T1 sequence (VH, as listed by the source, chain 1 of 2): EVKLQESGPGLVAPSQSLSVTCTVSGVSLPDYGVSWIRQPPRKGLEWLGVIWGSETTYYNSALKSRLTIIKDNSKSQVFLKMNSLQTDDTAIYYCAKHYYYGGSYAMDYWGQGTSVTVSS
T1 sequence (VL, as listed by the source, chain 2 of 2): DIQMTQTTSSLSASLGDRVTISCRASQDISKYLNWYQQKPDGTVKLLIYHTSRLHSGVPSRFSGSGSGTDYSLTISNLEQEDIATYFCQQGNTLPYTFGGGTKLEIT

RHCPWNCSLL [FMC63 Mimotope (A1), yeast-displayed] returned a Kd with FMC63 IgG [1] above 1000 nM.
For the molecule SKLKGKSGPE (also called 10 amino acid mimotope) [1D3 mimotope H1 (SKLKGKSGPE) as used in the ELISA of FIG. 13], the affinity in [2], expressed as Kd, was 190 nM.

B1: 1D3 Mimotope Multimer H1 + E2 (SKLKGKSGPEIRVLMSRVFA) (peptide)
peptide: SKLKGKSGPEIRVLMSRVFA
notes: Chemically synthesized 20 amino acid fusion of two mimotopes; also called fusion mimotope
On to B1, for which, in assay [3], binding was put at a Kd of 6.7 nM.

B2: 1D3 Mimotope Multimer H1 + C11 (SKLKGKSGPEFHWFINVPPF) (peptide)
peptide: SKLKGKSGPEFHWFINVPPF
notes: as for B1
In [4], B2 registered a Kd of 102 nM.
On to ALCPWSCREL (also called alanine at R1 (position 1)), for which the binding result in the assay with FMC63 IgG [5] is recorded as “no binding (tested: 5 µM)”.
In the case of RLAPWSCREL (also called alanine at C3 (position 3)), in the assay with FMC63 IgG [5], the binding result is on record as “no binding (tested: 5 µM)”.
For RLCPASCREL (also called alanine at W5 (position 5)), in the assay with FMC63 IgG [5], the binding result is on record as “no binding (tested: 5 µM)”.
For RLCAWSCREL (also called alanine at P4 (position 4)), in the assay with FMC63 IgG [5], the binding result is “no binding (tested: 5 µM)”.
Regarding RLCPWSAREL (also called alanine at C7 (position 7)), in the assay with FMC63 IgG [5], the binding result is recorded as “no binding (tested: 5 µM)”.
As to RICPWACVEL [FMC63 Mimotope(H8), yeast-displayed], the “EC50 (read off the curve)” value with FMC63 IgG [6] was around 8 nM.
Consider RLCPWDCREL [FMC63 Mimotope(F8), yeast-displayed], for which the 50% effective concentration (EC50 (read off the curve)) with FMC63 IgG [6] is around 10 nM.

B3: FMC63 Mimotope Mutant RLCPWSACREL (SEQ ID NO: 53), yeast-displayed (peptide)
peptide: RLCPWSACREL
notes: also called one alanine inserted between the two cysteine residues
Take B3: the binding result with FMC63 IgG [7] is given as “no binding (tested: 5 µM)”.
RICPWSCRAP [FMC63 Mimotope (D12), yeast-displayed] showed an equilibrium dissociation constant (Kd) with FMC63 IgG [8] above 1000 nM.
Turning to RICPWNCKELPSPPRIFGNR [K-C2 mimotope, yeast-displayed], the “EC50 (read off the curve)” value with FMC63 scFv is around 10 nM.

B4: FMC63 Mimotope Mutant RLCPWSAACREL (SEQ ID NO: 52), yeast-displayed (peptide)
peptide: RLCPWSAACREL
notes: also called two alanine residues inserted between the two cysteine residues
Consider B4, for which the binding result with FMC63 IgG [7] is on record as “no binding (tested: 5 µM)”.
In the assay with FMC63 IgG [9], RHCPWNCSLL [high-affinity mimotope RHCPWNCSLL (SEQ ID NO: 5) as used in the ELISA of FIG. 7] yielded an equilibrium dissociation constant (Kd) of around 1400 nM.
With RICPWNCKEL (also called F12 mimotope) [FMC63 Mimotope(F12), yeast-displayed], in the assay with FMC63 scFv, the “EC50 (read off the curve)” value is around 40 nM.
